Experimental findings from US20210188980A1 are described below.

Numbering of substitutions follows the chain as printed.

B1: mAb748 (antibody, V domains shown)
VH: EVQMQQSGAELVRPGASVKLSCTVSGFNIKDDYMHWVKQRPEQGLEWIGWIDPENGDTEYASKFQGKATITADTSSNTAYLQLNSLTSEDTAVYYCTYFDYWGQGTTLTVSS
VL: not shown
B2: mAb749 (antibody, V domains shown)
VH: EVQLQQSGAELVRPGASVKVSCTASDFNIKDDYVHWVKQRPEQGLEWIGWIDPENGDTEYASKFQGKATITADTSSNTAYLQLSSLTSEDTAVYFCSTWDAEENYWGQGTTLSVSS
VL: DIVLTQAAPSVPVTPGESVSISCRSSKSLLHSNGNTYLYWFLQRPGQSPQVLIYRMSNLASGVPVRFSGSGSGTAFTLRISRVEAEDVGVYYCMQHLEYPFTFGSGTKLEIK
B3: mAb750 (antibody, V domains shown)
VH: EVQLQQSGAELVRPGASVKLSCTPSGLNIKDDYIHWVKQRPEQGLEWIGWIDPENGDTEYASKFQGKATITADTSSNTAYLQLSSLTSEDSAVYYCCTADYRNWYWGQGTTLTVSS
VL: not shown
B4: mAb742 (antibody, V domains shown)
VH: QGQLQQSGAELVRPGASVTLSCKASGYTFNDYEMHWVKQTPVHGLEWIGAIDPETGGTAYNQKFKGKAILTADKSSSTAYMELRSLTSEDSAVYYCIRWGSTVFPYWGQGTLVTVS
VL: DGVLTQTPLSLPVNIGDQASISCKSTKSLLNSDGFTYLDWYLQKPGQSPQLLIYLVSNRFSGVPDRFSGSGSGTDFTLKISRVEAEDLGVYYCFQSNYLPWTFGGGTKLEIK
B5: mAb744 (antibody, V domains shown)
VH: B4 VH with G2V, A16T, N30T, V37M, E54A, E82D, L83F, S101T
VL: B4 VL with G2V
B6: mAb746 (antibody, V domains shown)
VH: EVQLQQSGAELVRPGASVKLSCTASDFNIKDDYMHWVKQRPEQGLDWIGWIVPENGNTEYASKFQGKATITADTSSNTAYLQLSSLTSEDTAVYYCTVYGDYWGQGTTLTVSS
VL: DIQMTQSPSSLSASLGERVSLNCRASQEISGYLSWLQQKSDGTIKRLIYAASTLDSGVPKRFSGSRSGSDYSLTISSLESEDFADYYCLQYASYPLTFGAGTKLELK
B7: mAb747 (antibody, V domains shown)
VH: B6 VH
VL: B6 VL with S40P, D85A

Sequence of cynomolgus LAG-3 ECD/Fc fusion protein (cynomolgus monkey) (chain, as listed by the source limits assumed, form in doubt): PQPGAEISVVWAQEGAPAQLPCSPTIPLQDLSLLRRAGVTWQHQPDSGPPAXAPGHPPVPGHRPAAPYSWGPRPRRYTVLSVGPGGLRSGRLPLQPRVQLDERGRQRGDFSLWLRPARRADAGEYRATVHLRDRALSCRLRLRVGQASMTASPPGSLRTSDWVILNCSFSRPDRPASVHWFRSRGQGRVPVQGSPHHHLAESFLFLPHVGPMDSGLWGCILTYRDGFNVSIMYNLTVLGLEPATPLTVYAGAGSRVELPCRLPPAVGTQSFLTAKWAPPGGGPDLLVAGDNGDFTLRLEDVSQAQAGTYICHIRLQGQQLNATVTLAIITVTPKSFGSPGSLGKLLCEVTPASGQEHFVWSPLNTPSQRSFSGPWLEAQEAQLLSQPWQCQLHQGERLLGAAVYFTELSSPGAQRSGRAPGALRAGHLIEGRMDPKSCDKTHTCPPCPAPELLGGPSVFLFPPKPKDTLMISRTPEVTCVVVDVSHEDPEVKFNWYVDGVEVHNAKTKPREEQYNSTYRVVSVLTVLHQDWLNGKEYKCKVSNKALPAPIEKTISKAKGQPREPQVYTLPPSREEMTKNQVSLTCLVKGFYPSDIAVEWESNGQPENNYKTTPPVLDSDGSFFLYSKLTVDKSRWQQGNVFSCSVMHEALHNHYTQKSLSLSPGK

This experiment has as its target cynomolgus LAG-3 ECD/Fc fusion protein (cynomolgus monkey). In words: ELISA, coated cynoLAG-3 ECD/Fc.
B1 yielded a concentration for a half-maximal effect (EC50) of 0.25 nM.
In the case of B2, the concentration for a half-maximal effect (EC50) worked out at 0.33 nM.
Consider B3, for which the EC50 turned out to be 0.32 nM.
B4 gave an EC50 of 0.32 nM.
B5: the concentration for a half-maximal effect (EC50) amounted to 0.21 nM. This EC50 lies about 1.5-fold lower than the previous one.
B6 came in with an EC50 of 0.21 nM.
B7: the half-maximal effective concentration (EC50) stood at 0.34 nM.
